Measured values as given in patent publication EP1736482A1.
One block for each substance: values may come before it.

Key:
[1] = target: recombinant human 4-1BB-Fc chimera (R&D Systems) (human) (UniProt Q07011); assay: SPR (BIAcore 2000), 4-1BB-Fc coupled to CM5 chip, ligand in flow, 25°C
[2] = target: 4-1BB on CD3-stimulated human T lymphocytes (PBMC) (human) (UniProt Q07011); assay: cell-based or functional assay
[3] = target: 4-1BB on CD3-stimulated human T lymphocytes (PBMC) (human) (UniProt Q07011); assay: flow cytometry on CD3-stimulated PBMC, ligand at 10 µg/ml revealed by PE-conjugated streptavidine
[4] = target: 4-1BB on CD3-stimulated human T lymphocytes (PBMC) (human) (UniProt Q07011); assay: flow cytometry on CD3-stimulated PBMC, PE-conjugated antibody

Sequence of recombinant human 4-1BB-Fc chimera (R&D Systems) (human) (Q07011 24-186, change not shown): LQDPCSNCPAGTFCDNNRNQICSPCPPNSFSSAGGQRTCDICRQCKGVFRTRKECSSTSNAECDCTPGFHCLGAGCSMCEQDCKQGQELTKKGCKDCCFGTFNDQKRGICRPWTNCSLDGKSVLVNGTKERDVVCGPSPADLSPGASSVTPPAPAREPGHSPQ
Sequence of 4-1BB on CD3-stimulated human T lymphocytes (PBMC) (human) (Q07011 24-255): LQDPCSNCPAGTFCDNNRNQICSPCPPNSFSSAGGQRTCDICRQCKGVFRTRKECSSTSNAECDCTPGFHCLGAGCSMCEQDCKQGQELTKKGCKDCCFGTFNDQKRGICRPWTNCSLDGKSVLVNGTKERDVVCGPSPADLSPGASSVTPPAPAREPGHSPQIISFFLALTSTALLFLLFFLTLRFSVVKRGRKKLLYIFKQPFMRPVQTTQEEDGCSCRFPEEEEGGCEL

- Kd [1]: 2.3 nM
- koff [1]: 0.00052 s⁻¹
- kon [1]: 230000 M⁻¹ s⁻¹
Substance: C51S AviTag-4-1BBL (from UniProt P41273 50-254) (ligand)

- inhibition of the proliferation of CD3-stimulated PBMC (tritiated thymidine incorporation) [2]: 70%
- percentage of 4-1BB positive activated T cells stained [3]: 60%
Substance: WT AviTag-4-1BBL (trimeric recombinant human 4-1BBL extracellular domain with N-terminal AviTag, produced in E. coli and refolded) (from UniProt P41273 50-254) (ligand)

- percentage of 4-1BB positive activated T cells stained [4]: 64%
Substance: PE-conjugated anti 4-1BB mAb (clone 4B4-1, BD Biosciences) (antibody)
